We go through 24 variants from IntAct's records for PubMed 35512704.

B1: Mothers against decapentaplegic homolog 4 (Homo sapiens), Q13485 (parent)
chain: MDNMSITNTPTSNDACLSIVHSLMCHRQGGESETFAKRAIESLVKKLKEKKDELDSLITAITTNGAHPSKCVTIQRTLDGRLQVAGRKGFPHVIYARLWRWPDLHKNELKHVKYCQYAFDLKCDSVCVNPYHYERVVSPGIDLSGLTLQSNAPSSMMVKDEYVHDFEGQPSLSTEGHSIQTIQHPPSNRASTETYSTPALLAPSESNATSTANFPNIPVASTSQPASILGGSHSEGLLQIASGPQPGQQQNGFTGQPATYHHNSTTTWTGSRTAPYTPNLPHHQNGHLQHHPPMPPHPGHYWPVHNELAFQPPISNHPAPEYWCSIAYFEMDVQVGETFKVPSSCPIVTVDGYVDPSGGDRFCLGQLSNVHRTEAIERARLHIGKGVQLECKGEGDVWVRCLSDHAVFVQSYYLDREAGRAPGDAVHKIYPSAYIKVFDLRQCHRQMQQQAATAQAAAAAQAAAVAGNIPGPGSVGGIAPAISLSAAAGIGVDDLRRLCILRMSFVKGWGPDYPRQSIKETPCWIEIHLHRALQLLDEVLHTMPIADPQPLD
partner: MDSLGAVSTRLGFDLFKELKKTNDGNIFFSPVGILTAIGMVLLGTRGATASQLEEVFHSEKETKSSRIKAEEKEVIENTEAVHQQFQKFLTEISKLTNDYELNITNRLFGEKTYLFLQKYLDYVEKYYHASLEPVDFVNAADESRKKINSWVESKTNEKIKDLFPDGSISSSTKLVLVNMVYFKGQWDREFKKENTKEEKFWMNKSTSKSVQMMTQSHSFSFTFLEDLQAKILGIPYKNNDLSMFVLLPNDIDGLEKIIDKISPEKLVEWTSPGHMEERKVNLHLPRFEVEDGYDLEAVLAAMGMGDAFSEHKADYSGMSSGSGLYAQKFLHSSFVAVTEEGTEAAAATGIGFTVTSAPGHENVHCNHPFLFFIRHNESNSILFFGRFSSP
B2: Mothers against decapentaplegic homolog 4 (Homo sapiens), Q13485 (parent)
chain: B1 chain
partner: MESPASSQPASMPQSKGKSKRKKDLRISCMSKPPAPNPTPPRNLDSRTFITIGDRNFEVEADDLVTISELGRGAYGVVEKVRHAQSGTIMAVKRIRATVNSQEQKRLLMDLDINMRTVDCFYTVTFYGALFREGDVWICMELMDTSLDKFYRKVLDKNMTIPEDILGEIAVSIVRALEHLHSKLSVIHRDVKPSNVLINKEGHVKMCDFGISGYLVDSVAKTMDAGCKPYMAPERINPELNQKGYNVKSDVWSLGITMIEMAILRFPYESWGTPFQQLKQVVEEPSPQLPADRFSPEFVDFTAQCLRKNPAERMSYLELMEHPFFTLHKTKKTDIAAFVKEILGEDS
B3: Mothers against decapentaplegic homolog 4 (Homo sapiens), Q13485 (parent)
chain: B1 chain
partner: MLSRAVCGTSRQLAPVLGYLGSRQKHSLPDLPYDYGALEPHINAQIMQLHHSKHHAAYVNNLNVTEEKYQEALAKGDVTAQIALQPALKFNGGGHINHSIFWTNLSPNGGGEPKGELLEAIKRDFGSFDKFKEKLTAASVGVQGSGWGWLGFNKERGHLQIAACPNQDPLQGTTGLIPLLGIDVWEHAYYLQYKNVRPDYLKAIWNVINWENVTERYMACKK
B4: Mothers against decapentaplegic homolog 4 (Homo sapiens), Q13485 (parent)
chain: B1 chain
partner: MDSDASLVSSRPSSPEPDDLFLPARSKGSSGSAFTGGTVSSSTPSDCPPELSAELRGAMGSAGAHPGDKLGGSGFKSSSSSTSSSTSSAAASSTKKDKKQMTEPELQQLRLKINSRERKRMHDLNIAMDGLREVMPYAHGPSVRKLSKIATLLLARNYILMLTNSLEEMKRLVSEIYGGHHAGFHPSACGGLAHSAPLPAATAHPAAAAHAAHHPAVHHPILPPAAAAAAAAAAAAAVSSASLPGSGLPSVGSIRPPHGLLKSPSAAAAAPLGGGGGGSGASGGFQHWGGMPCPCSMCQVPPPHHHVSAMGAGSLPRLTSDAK
B5: Mothers against decapentaplegic homolog 4 (Homo sapiens), Q13485 (parent)
chain: B1 chain
partner: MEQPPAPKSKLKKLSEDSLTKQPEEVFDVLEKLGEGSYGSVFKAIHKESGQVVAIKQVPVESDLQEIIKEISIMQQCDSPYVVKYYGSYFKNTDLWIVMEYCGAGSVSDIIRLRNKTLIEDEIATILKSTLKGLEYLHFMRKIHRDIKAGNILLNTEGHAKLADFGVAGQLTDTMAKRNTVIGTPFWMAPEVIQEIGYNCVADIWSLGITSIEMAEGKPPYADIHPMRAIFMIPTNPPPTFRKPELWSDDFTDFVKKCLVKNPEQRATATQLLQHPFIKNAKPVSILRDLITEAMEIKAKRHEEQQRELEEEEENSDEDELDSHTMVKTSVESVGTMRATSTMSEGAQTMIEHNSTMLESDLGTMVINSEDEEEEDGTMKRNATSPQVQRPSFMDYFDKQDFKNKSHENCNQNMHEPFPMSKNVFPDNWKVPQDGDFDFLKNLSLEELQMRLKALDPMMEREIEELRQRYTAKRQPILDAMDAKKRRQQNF
B6: Mothers against decapentaplegic homolog 4 (Homo sapiens), Q13485 (parent)
chain: B1 chain
partner: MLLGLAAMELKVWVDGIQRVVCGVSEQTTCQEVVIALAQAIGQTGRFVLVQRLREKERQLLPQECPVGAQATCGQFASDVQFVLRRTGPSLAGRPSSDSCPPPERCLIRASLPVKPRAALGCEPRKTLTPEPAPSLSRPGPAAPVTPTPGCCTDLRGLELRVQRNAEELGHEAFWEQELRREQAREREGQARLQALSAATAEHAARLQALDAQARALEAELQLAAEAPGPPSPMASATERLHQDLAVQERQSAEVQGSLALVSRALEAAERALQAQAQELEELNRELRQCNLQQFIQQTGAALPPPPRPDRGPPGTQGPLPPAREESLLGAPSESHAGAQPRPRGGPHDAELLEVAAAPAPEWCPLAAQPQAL

Variants of B1 are the subject of the first test. As to conditions: with spb13_human SERPINB13, Q9UIV8.
In the case of D351H, the “effect of a mutation on the interaction” value is “with no effect”.

The variants in another test derive from B1. As to conditions: with spb13_human SERPINB13, Q9UIV8. This is another data set of the same source.
Turning to R361H, the “effect of a mutation on the interaction” value was “with no effect”.

The variants in the next test derive from B1. To be noted: with spb13_human SERPINB13, Q9UIV8. The source holds these as a separate data set.
As for R361C, the “effect of a mutation on the interaction” value was “with no effect”.

A further test covers variants of B1. To be noted: with spb13_human SERPINB13, Q9UIV8. The source holds these as a separate data set.
For the variant G386D, the “effect of a mutation on the interaction” value is “with no effect”.

In a further test the parent is B2. To be noted: with mp2k3_human MAP2K3, P46734.
As to R361C, the “effect of a mutation on the interaction” value is given as “with no effect”.

Variants of B2 are the subject of a further test. As to conditions: with mp2k3_human MAP2K3, P46734. This is another data set of the same source.
Regarding R361H, the “effect of a mutation on the interaction” value was “with no effect”.

In another test the parent is B2. To be noted: with mp2k3_human MAP2K3, P46734. The source holds these as a separate data set.
In the case of G386D, the “effect of a mutation on the interaction” value is listed as “with no effect”.

A further test covers variants of B2. As to conditions: with mp2k3_human MAP2K3, P46734. This is another data set of the same source.
For the variant D351H, the “effect of a mutation on the interaction” value is “with no effect”.

The variants in the next test derive from B3. As to conditions: with sodm_human SOD2, P04179.
With D351H, the “effect of a mutation on the interaction” value is recorded as “with no effect”.

The variants in the next test derive from B3. As to conditions: with sodm_human SOD2, P04179. This is another data set of the same source.
Consider R361H, for which the “effect of a mutation on the interaction” value is “with no effect”.

In a further test the parent is B3. As to conditions: with sodm_human SOD2, P04179. The source holds these as a separate data set.
On to R361C, for which the “effect of a mutation on the interaction” value is listed as “with no effect”.

In a further test the parent is B3. As to conditions: with sodm_human SOD2, P04179. This is another data set of the same source.
With G386D, the “effect of a mutation on the interaction” value is reported as “with no effect”.

A further test covers variants of B4. As to conditions: with olig2_human OLIG2, Q13516.
In the case of D351H, the “effect of a mutation on the interaction” value is “with no effect”.

In another test the parent is B4. As to conditions: with olig2_human OLIG2, Q13516. This is another data set of the same source.
Regarding G386D, the “effect of a mutation on the interaction” value is “with no effect”.

The variants in the next test derive from B4. As to conditions: with olig2_human OLIG2, Q13516. This is another data set of the same source.
Consider R361H, for which the “effect of a mutation on the interaction” value is reported as “with no effect”.

The variants in a further test derive from B4. To be noted: with olig2_human OLIG2, Q13516. The source holds these as a separate data set.
As to R361C, the “effect of a mutation on the interaction” value is “with no effect”.

The variants in a further test derive from B5. As to conditions: with stk3_human STK3, Q13188.
Take R361C: the “effect of a mutation on the interaction” value was “with no effect”.

Another test covers variants of B5. As to conditions: with stk3_human STK3, Q13188. The source holds these as a separate data set.
As for R361H, the “effect of a mutation on the interaction” value was “with no effect”.

The variants in the next test derive from B5. As to conditions: with stk3_human STK3, Q13188. The source holds these as a separate data set.
As for G386D, the “effect of a mutation on the interaction” value is “with no effect”.

The next test covers variants of B5. To be noted: with stk3_human STK3, Q13188. This is another data set of the same source.
In the case of D351H, the “effect of a mutation on the interaction” value is on record as “with no effect”.

The variants in the next test derive from B6. To be noted: with rasf7_human RASSF7, Q02833.
For G386D, the “effect of a mutation on the interaction” value is on record as “with no effect”.

Another test covers variants of B6. As to conditions: with rasf7_human RASSF7, Q02833. The source holds these as a separate data set.
As to D351H, the “effect of a mutation on the interaction” value is listed as “with no effect”.

The variants in another test derive from B6. To be noted: with rasf7_human RASSF7, Q02833. The source holds these as a separate data set.
Consider R361C, for which the “effect of a mutation on the interaction” value was “with no effect”.

A further test covers variants of B6. To be noted: with rasf7_human RASSF7, Q02833. The source holds these as a separate data set.
As for R361H, the “effect of a mutation on the interaction” value is reported as “with no effect”.
